The values below come from patent publication US12312397B2, “Anti-O2 antibodies and uses thereof” (priority 2016, dated 2025).

Assay [1] deals with O2 LPS activation of NF-κB in RAW264.7-lux cells. Briefly: LPS neutralization assay (NF-κB luciferase, RAW264.7-lux), O2 LPS. The class given is cell-based, murine. The arrangement: key to LPS Neut O2: +++: Strongly positive activity; +: Positive activity; +/−: Somewhat positive depending upon the test conditions. The settings on record: for LPS Neut O2: Table 7 summary; for neutralizing activity against O2 LPS (NF-κB activation): human IgG1 format; for neutralization of LPS-O2: secondary screening. The method, then:
(§1) Activation of TLR4 receptors by bacterial LPS leads to downstream activation of the NF-κB transcriptional regulator. A decrease in induction of NF-κB-responsive luciferase activity was used to quantify LPS neutralization activity by LPS mAbs. A murine RAW264.7 macrophage cell line was engineered to carry a firefly luciferase reporter gene under the control of an NF-κB-responsive promoter (RAW264.7-lux). Serially diluted antibody stocks were mixed with LPS in a 1:1 ratio and incubated at 4° C. for 1 hr. Antibody/LPS mixtures were then diluted 1:10 into assay plates containing pre-seeded RAW264.7-lux cells (4e5 cells/well), which were then placed at 37° C. with 5% CO2 for 2.5 hours. Following incubations, Steady Glo solution (Promega) was added to each well and incubated for another 20 min protected from light. The relative light units (RLUs) were measured using a multi-mode microplate reader (Synergy 2, Biotek or envision multilabel plate reader, Perkin Elmer). The percentage of inhibition was determined by comparing RLU derived from assays with no antibodies to RLU derived from assays with anti-K. pneumoniae mAbs and assays performed with a negative control mAb. […] All mAbs were tested in human IgG1 format.

The subject of assay [2] is K. pneumoniae 8570ΔcpsBLux (O2). Put plainly: Opsonophagocytic killing (OPK) assay, O2 capsule mutant. The class given is cell-based, Klebsiella pneumoniae. The arrangement: key to D Capsule OPK O2: +++: Strongly positive activity; +: Positive activity; +/−: Somewhat positive depending upon the test conditions. The settings on record: for D Capsule OPK O2: capsule mutant strain 8570ΔcpsB lux (O2); for OPK activity against O2 capsule mutant: secondary screening. The method, then: OPK activity of anti-O2 LPS mAbs was tested against O1 and O2 strains. Briefly, log phase cultures of luminescent K. pneumoniae strains 8570ΔcpsBLux (O2) and 43816ΔcpsBLux (O1) were diluted to ˜2×10^6 cells/ml. K. pneumoniae cells, 5e5/well dimethylformamide (DMF) differentiated HL-60 cells, cleared baby rabbit serum (1:10 Cedarlane), and a series dilution of antibodies (2 ng-2.5 μg/mL) were mixed in 96-well plates and incubated at 37° C. for two hours with shaking (250 rpm). The relative light units (RLUs) were then measured using a multi-mode microplate reader (Synergy 2, Biotek or envision multilabel plate reader, Perkin Elmer). The percentage of killing was determined by comparing RLU derived from assays with no antibodies to RLU derived from assays with anti-K. pneumoniae mAbs and assays performed with a negative control mAb. Positive killing was determined where the percentage of killing is above 40%.

A further assay concerns O2 LPS. Put plainly: ELISA binding to O2 LPS. The arrangement: species or system Klebsiella pneumoniae. The settings on record: secondary screening, ELISA. The protocol:
(§2) The coated plates were incubated with cell culture supernatants from polyclonally stimulated lymphocytes (AMVBRA) or from monoclonal immortalized B cells (donor interrogations) containing fully human antibodies or with diluted plasma samples (PBMC donor selections) for 1 hour at room temperature. The plates were then washed with PBS containing 0.1% Tween-20 (PBS-T). Secondary antibody was added; either Alkaline Phosphatase-conjugated Goat Anti-Human IgG-AP (Southern Biotech, 2040-04, 1:1000 in PBS-B) or Peroxidase AffiniPure F(ab′)2 Fragment Goat Anti-Human IgG, Fc Fragment Specific (Jackson ImmunoResearch #309 036 098, 1:5000 in PBS-B) were used. Secondary antibodies were typically incubated for 1 h. Plates were washed three times with PBS-T, and P-NitroPhenyl Phosphate (pNPP, Sigma-Aldrich, cat #N2765-100TAB) or Sureblue (KPL, 53-00-03) substrates were added and incubated for 10 min or until the development of a colorimetric reaction. In the case of the HRP substrate Sureblue, the reaction was stopped by adding an equal volume of 0.2N HCl. The absorbance at 405 nm (pNPP) or 450 nm (Sureblue) was measured by a microplate reader (Biotek, Elx808).
(§3) The coated plates were incubated with serial dilutions of the monoclonal antibodies for 1 hour at room temperature. The plates were then washed with PBS containing 0.1% Tween-20 (PBS-T). Alkaline Phosphatase-conjugated Goat Anti-Human IgG (Southern Biotech, 2040-04, 1:1000 in PBS-B) was added. The secondary antibody reactions were incubated for 1 h. Plates were washed three times with PBS-T, and P-NitroPhenyl Phosphate (pNPP, Sigma-Aldrich, cat #N2765-100TAB) substrate was added and incubated for 30 min or until the development of a colorimetric reaction. The absorbance at 405 nm was measured by a microplate reader (Biotek, Elx808). The data was plotted with Graphpad Prism software. Representative mAbs from each class were tested for their binding to O1 LPS (FIG. 2A) and O2 LPS (FIG. 2B), and EC50 values were obtained (FIG. 2C). The majority of the anti-O2 LPS mAbs bound to both O1 and O2 LPS by ELISA. […] None of these LPS mAbs bound to the 03, 04, 05, 07, or 012 LPS serotypes (see e.g., FIG. 1A).

Assay [3] concerns O1 LPS activation of NF-κB in RAW264.7-lux cells. Put plainly: LPS neutralization assay (NF-κB luciferase, RAW264.7-lux), O1 LPS. The class given is cell-based, murine. The settings on record: for neutralizing activity against O1 LPS (NF-κB activation): human IgG1 format. The protocol:
as §1

In a further assay the test system is O1 LPS. Briefly: ELISA binding to O1 LPS. Set-up: species or system Klebsiella pneumoniae. The settings on record: secondary screening. The method, then:
as §2, §3
(An ELISA detects its analyte on a solid surface through an enzyme-linked reagent.)

Residue numbers refer to the chain shown, from its start.

B1: KPS18: Class III anti-O2 antigen human mAb; VH SEQ ID NO: 98, VL SEQ ID NO: 99 (antibody, V domains shown)
VH: EVRLVESGGGLVKPGGSLRLSCAASGFTFKNAWMSWIRQAPGKGLEWVGRVKNEVDGGTIDYGVPVRGRFTISRDDSQGTLSLEMNSLREDDTGIYYCRAFWSGFPAGYWGQGTLVSVSS
VL: QSVLTQPPSLSAAPGQTVTIACSGSRSNIGSDSVSWFQQFPGTAPRVLMYDNNKRPSGISDRFSGSKSGTSVTLDITGLQTGDEADYYCATWDSSLSAYVFGSGTKVTVL
modifications: Description of Artificial Sequence: SyntheticKPS18 VH polypeptide; Description of Artificial Sequence: SyntheticKPS18 VL polypeptide
Regarding B1, in assay [1], the “LPS Neut O2” value is given as “+/−”, the “neutralizing activity against O2 LPS (NF-κB activation)” value is reported as “moderate neutralizing activity” and the “neutralization of LPS-O2” value is “neutralized”. Also, in assay [2], the “D Capsule OPK O2” value is “+++” and the “OPK activity against O2 capsule mutant” value is recorded as “strong OPK activity”. The “binding to LPS-O2” value with O2 LPS is reported as “bound specifically”. Also, the “neutralizing activity against O1 LPS (NF-κB activation)” value in assay [3] is on record as “no activity”.

B2: KPS24: Class III anti-O2 antigen human mAb; VH SEQ ID NO: 107, VL SEQ ID NO: 108 (antibody, V domains shown)
VH: ELHLVESGGGLVKPGGSLRLSCAASGFTFKNAWMSWIRQAPGKGLEWVGRVKSEVDGGTTDYGVPVRGRFTISRDDSQSTLSLEMSSLQDDDTGVYYCRAFWSDFQTGYWGQGTLVTVSS
VL: B1 VL with L10V, R26S, F40L, D51E, D75G, T91A, S97R
modifications: Description of Artificial Sequence: SyntheticKPS24 VH polypeptide; Description of Artificial Sequence: SyntheticKPS24 VL polypeptide
Take B2: in assay [1], the “LPS Neut O2” value is “+/−”, the “neutralizing activity against O2 LPS (NF-κB activation)” value was “moderate neutralizing activity” and the “neutralization of LPS-O2” value is reported as “neutralized”. In addition, in assay [2], the “D Capsule OPK O2” value is “+++” and the “OPK activity against O2 capsule mutant” value was “strong OPK activity”. In the assay with O2 LPS, the “binding to LPS-O2” value is reported as “bound specifically”. Also, the “neutralizing activity against O1 LPS (NF-κB activation)” value in assay [3] was “no activity”.

B3: KPS30: Class I anti-O2 antigen human mAb; VH SEQ ID NO: 125, VL SEQ ID NO: 126 (antibody, V domains shown)
VH: EMQLVESGGGLVQPGVSLRLSCVDSGFSFSTSWLAWVRQAPGKGLEWLANIDPDGSTRNHVDSVRGRFTISRDNAKNSLYLQMNSLRAEDTAVYYCARDYAYNRFDYWGQGTMVTVSS
VL: QSALTQPPSASGSPGQSVVISCTGTSSDIGANNYVSWYQQHPGKAPKLLLYEVNKRPSGVPDRFSASKSGNTASLTVSGLLAEDEADYYCCGYGGGRVFGGGTKLTVL
modifications: Description of Artificial Sequence: SyntheticKPS30 VH polypeptide; Description of Artificial Sequence: SyntheticKPS30 VL polypeptide
For B3, the “neutralization of LPS-O2” value in assay [1] is on record as “neutralized”. Also, in assay [2], the “D Capsule OPK O2” value is “+++” and the “OPK activity against O2 capsule mutant” value is listed as “strong OPK activity”. The “binding to LPS-O1” value with O1 LPS is “bound”. For the same molecule, the “binding to LPS-O2” value with O2 LPS was “bound”. Further, the “neutralization of LPS-O1” value in assay [3] (secondary screening) is reported as “neutralized”.
